Data as given in US20090304667A1 (POSTECH ACADEMY INDUSTRY, published 2009).

Target: T1, PLD2^wt (Homo sapiens, UniProt O14939 1-933)
T1 construct: Ectopically expressed in COS7 or HEK293 cells from a mammalian expression vector; used as cell lysate; also called phospholipase D2
Experiment: GST pull-down with PLD2-expressing cell lysates

T1 sequence (O14939 whole entry R172C/T577I): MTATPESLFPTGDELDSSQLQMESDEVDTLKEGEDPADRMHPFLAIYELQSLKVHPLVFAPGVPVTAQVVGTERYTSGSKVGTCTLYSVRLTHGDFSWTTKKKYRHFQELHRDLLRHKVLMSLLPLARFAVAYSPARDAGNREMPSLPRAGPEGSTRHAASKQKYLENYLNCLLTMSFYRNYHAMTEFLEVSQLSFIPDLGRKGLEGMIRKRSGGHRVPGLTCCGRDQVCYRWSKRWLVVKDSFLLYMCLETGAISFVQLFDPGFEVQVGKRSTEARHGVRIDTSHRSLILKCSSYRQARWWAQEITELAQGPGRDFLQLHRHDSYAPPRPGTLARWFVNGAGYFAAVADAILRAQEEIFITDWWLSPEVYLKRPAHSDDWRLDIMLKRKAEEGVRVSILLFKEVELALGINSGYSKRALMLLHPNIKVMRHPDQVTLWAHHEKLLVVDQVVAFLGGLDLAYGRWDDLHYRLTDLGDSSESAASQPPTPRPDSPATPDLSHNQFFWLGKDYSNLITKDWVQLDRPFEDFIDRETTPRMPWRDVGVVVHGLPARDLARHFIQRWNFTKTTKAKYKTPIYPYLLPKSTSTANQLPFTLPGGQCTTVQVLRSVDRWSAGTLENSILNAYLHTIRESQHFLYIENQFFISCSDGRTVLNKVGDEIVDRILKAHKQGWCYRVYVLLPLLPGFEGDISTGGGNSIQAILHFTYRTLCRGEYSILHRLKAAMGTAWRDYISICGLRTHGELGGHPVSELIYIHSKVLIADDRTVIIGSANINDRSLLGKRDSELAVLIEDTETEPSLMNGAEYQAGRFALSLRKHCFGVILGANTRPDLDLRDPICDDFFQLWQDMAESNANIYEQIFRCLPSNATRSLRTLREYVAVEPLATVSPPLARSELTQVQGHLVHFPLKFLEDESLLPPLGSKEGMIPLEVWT

B1: GST-R-Ras (other, UniProt P10301 1-218, looked up)
chain: MSSGAASGTGRGRPRGGGPGPGDPPPSETHKLVVVGGGGVGKSALTIQFIQSYFVSDYDPTIEDSYTKICSVDGIPARLDILDTAGQEEFGAMREQYMRAGHGFLLVFAINDRQSFNEVGKLFTQILRVKDRDDFPVVLVGNKADLESQRQVPRSEASAFGASHHVAYFEASAKLRLNVDEAFEQLVRAVRKYQEQELPPSPPSAPRKKGGGCPCVLL
notes: Expressed in E. coli, on glutathione-Sepharose beads; also called GST-Ras; not shown: GST tag
Q: Does B1 bind?
A: no binding
